# Assay results as given in US20170143843A1 (Genentech, published 2017).
# Positions count from the first letter of the chain named. Names may count otherwise.
# B1: AFD.v7 (TM.D92E; VL-D30E:D31S VH-D62E VL-D92E) (Fab, V domains shown)
# VH: EVQLVQSGPELKKPGASVKVSCKASGYTFTNYGMNWVRQAPGQGLEWMGWINTYTGETTYAEDFKGRFVFSLDTSVSTAYLQISSLKAEDTAVYYCEREGGVNNWGQGTLVTVSS
# VL: DIQVTQSPSSLSASVGDRVTITCITSTDIESDMNWYQQKPGKVPKLLISGGNTLRPGVPSRFSGSGSGTDFTLTISSLQPEDVATYYCLQSESLPYTFGQGTKVEIKR
# notes: Fab variant of aFD.WT; also called TM.D92E (AFD.v7)
# B2: AFD.v8 (SIESD; VL-D28S:D30E:D31S VH-D62E) (Fab, V domains shown)
# VH: B1 VH
# VL: B1 VL with D28S, E92D
# notes: Fab; also called SIESD (AFD.v8)
# B3: AFD.v14 (SIESD.N103S; VL-D28S:D30E:D31S VH-D62E VH-N103S) (Fab, V domains shown)
# VH: B1 VH with N103S
# VL: B1 VL with D28S, E92D
# notes: Fab; also called SIESD.N103S (AFD.v14); AFD.14
# B4: AFD.v8 tetramer (AFD.v8.C conjugated to Sunbright PTE-400MA four-armed PEG) (other)
# light: DIQVTQSPSSLSASVGDRVTITCITSTSIESDMNWYQQKPGKVPKLLISGGNTLRPGVPSRFSGSGSGTDFTLTISSLQPEDVATYYCLQSDSLPYTFGQGTKVEIKRTVAAPSVFIFPPSDEQLKSGTASVVCLLNNFYPREAKVQWKVDNALQSGNSQESVTEQDSKDSTYSLSSTLTLSKADYEKHKVYACEVTHQGLSSPVTKSFNRGEC
# heavy: EVQLVQSGPELKKPGASVKVSCKASGYTFTNYGMNWVRQAPGQGLEWMGWINTYTGETTYAEDFKGRFVFSLDTSVSTAYLQISSLKAEDTAVYYCEREGGVNNWGQGTLVTVSSASTKGPSVFPLAPSSKSTSGGTAALGCLVKDYFPEPVTVSWNSGALTSGVHTFPAVLQSSGLYSLSSVVTVPSSSLGTQTYICNVNHKPSNTKVDKKVEPKSCDKTHTC
# modifications: C-terminal Cys linked through maleimide to one arm of a 40,000 MW four-armed PEG (Sunbright PTE-400MA)
# B5: AFD.v14 tetramer (AFD.v14.C conjugated to Sunbright PTE-400MA four-armed PEG) (other)
# light: B4 light
# heavy: B4 heavy with N103S
# modifications: C-terminal Cys linked through maleimide to one arm of a 40,000 MW four-armed PEG (Sunbright PTE-400MA)
# B6: AFD.v14.C+TP octamer (Cys-modified AFD.v14-8ARM (TP)-PEG-MAL conjugate) (other)
# light: B4 light
# heavy: B4 heavy with N103S
# modifications: C-terminal Cys linked through maleimide to one arm of a 40,000 MW eight-armed PEG with tripentaerythritol (TP) core (8ARM (TP)-PEG-MAL, JenKem)
# B7: AFD.v14.C (Cys-modified AFD.v14 variant, Fab-C) (Fab, V domains shown)
# VH: B1 VH with N103S
# VL: B1 VL with D28S, E92D
# B8: AFD.v15 (SIESD.N103S.D92E; VL-D28S:D30E:D31S:D92E VH-D62E:N103S) (Fab, V domains shown)
# VH: B1 VH with N103S
# VL: B1 VL with D28S
# notes: Fab variant of aFD.WT
# B9: AFD.v1 (VL-D28S) (Fab, V domains shown)
# VH: B1 VH with E62D
# VL: B1 VL with D28S, E30D, S31D, E92D
# notes: Fab variant of aFD.WT
# B10: AFD.v2 (VL-D30E) (Fab, V domains shown)
# VH: B1 VH with E62D
# VL: B1 VL with S31D, E92D
# notes: Fab variant of aFD.WT; also called D30E (AFD.v2)
# B11: AFD.v3 (VL-D31S) (Fab, V domains shown)
# VH: B1 VH with E62D
# VL: B1 VL with E30D, E92D
# notes: Fab variant of aFD.WT
# B12: AFD.v4 (VL-D32S) (Fab, V domains shown)
# VH: B1 VH with E62D
# VL: B1 VL with E30D, S31D, D32S, E92D
# notes: Fab variant of aFD.WT
# B13: AFD.v5 (VL-D28S:D31S:D32S) (Fab, V domains shown)
# VH: B1 VH with E62D
# VL: B1 VL with D28S, E30D, D32S, E92D
# notes: Fab variant of aFD.WT
# B14: AFD.v6 (TM; VL-D30E:D31S VH-D62E) (Fab, V domains shown)
# VH: B1 VH
# VL: B1 VL with E92D
# notes: Fab variant of aFD.WT; also called TM (AFD.v6)
# B15: AFD.v9 (VL-D28S:D30E:D31S VH-D62E VL-N34S) (Fab, V domains shown)
# VH: B1 VH
# VL: B1 VL with D28S, N34S, E92D
# notes: Fab variant of aFD.WT; also called SIESD + VL-N34S
# B16: AFD.v10 (SIESD.D92E; VL-D28S:D30E:D31S VH-D62E VL-D92E) (Fab, V domains shown)
# VH: B1 VH
# VL: B1 VL with D28S
# notes: Fab variant of aFD.WT
# B17: AFD.v11 (VL-D28S:D30E:D31S VH-D62E VH-N52S) (Fab, V domains shown)
# VH: B1 VH with N52S
# VL: B1 VL with D28S, E92D
# notes: Fab variant of aFD.WT; also called SIESD + VH-N52S
# B18: AFD.v12 (SIESD.N103D; VL-D28S:D30E:D31S VH-D62E VH-N103D) (Fab, V domains shown)
# VH: B1 VH with N103D
# VL: B1 VL with D28S, E92D
# notes: Fab variant of aFD.WT
# B19: AFD.v13 (SIESD.N103Q; VL-D28S:D30E:D31S VH-D62E VH-N103Q) (Fab, V domains shown)
# VH: B1 VH with N103Q
# VL: B1 VL with D28S, E92D
# notes: Fab variant of aFD.WT
# Biological target: T1, human factor D (human, UniProt P00746 26-253)
# Assay: cell-based or functional assay
# T1 sequence (P00746 26-253 limits assumed): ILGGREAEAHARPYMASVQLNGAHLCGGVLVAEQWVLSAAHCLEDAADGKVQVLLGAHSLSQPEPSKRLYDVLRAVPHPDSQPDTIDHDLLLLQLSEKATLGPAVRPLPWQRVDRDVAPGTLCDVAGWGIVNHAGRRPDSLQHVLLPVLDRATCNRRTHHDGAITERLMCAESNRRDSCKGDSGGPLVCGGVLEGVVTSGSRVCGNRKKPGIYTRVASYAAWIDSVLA
row,Binder,"IC50 (nM) AP Hemolysis (rabbit erythrocytes, C1q-depleted human serum)"
1,B1,3.8 nM
2,B2,4.2 nM
3,B3,4.1 nM

# Biological target: T1, human factor D
# Assay: cell-based or functional assay
# Remark: another data set of the same source
row,Binder,"Average IC50 fB Activation (pM), TR-FRET, 50 pM fD"
1,B2,27.6 pM
2,B3,34 pM
3,B4,11 pM
4,B5,14.8 pM

# Biological target: T1, human factor D
# Assay: cell-based or functional assay
# Remark: another data set of the same source
Binder,"Average IC50 fB Activation (pM), TR-FRET, 125 pM fD","Average IC50 fB Activation (pM), TR-FRET, 125 pM fD; AFD.v14 TP octamer (CEX pool)","Average IC50 fB Activation (pM), TR-FRET, 125 pM fD; AFD.v14 TP octamer (S200 pool)"
B3,87 pM,–,–
B6,–,77 pM,104 pM
B7,72 pM,–,–

# Biological target: T1, human factor D
# Assay: SPR, captured Fab, fD injected
row,Binder,fold decrease in affinity against SIESD.N103S (AFD.v14)
1,B8,4 fold

# Biological target: T1, human factor D
# Assay: SPR Biacore T200, Fab captured by anti-huFab, human fD injected, 25 C
# Description: Antibody Fab fragments were immobilized on a Series S CM5 sensor chip using the anti-huFab capture kit (GE healthcare Cat. #28-9583-25) following a protocol described by the manufacturer. Kinetics of binding were calculated from sensorgrams recorded for injection of 60 μL aliquots of solutions of human factor D varied in concentration from 0.39 nM to 25 nM in 2-fold increments. The flow rate was 30 μL/minute, the running buffer was HBS-P+, the temperature of analysis was 25° C., real-time reference cell subtraction was employed, and dissociation following factor D injection was followed for 10 minutes. After subtraction of the sensorgram observed for injection of running buffer, data were analyzed according to a 1:1 model using BiaEval software v4.1 (GE Healthcare) to extract the kinetics and affinity constants.
row,Binder,Kd
1,B9,≤ 0.01 nM
2,B10,≤ 0.01 nM
3,B11,≤ 0.01 nM
4,B12,0.026 nM
5,B13,0.28 nM
6,B14,≤ 0.01 nM
7,B1,≤ 0.01 nM
8,B2,0.0167 nM
9,B15,0.03 nM
10,B16,0.07 nM
11,B17,0.07 nM
12,B18,0.023 nM
13,B19,0.06 nM
14,B3,0.0256 nM
15,B8,0.102 nM

# Biological target: T1, human factor D
# Assay: SPR total binding to fD over time; Fab 100 mg/mL in PBS, 37 C, 10 weeks (FIG. 2B)
row,Binder,loss in binding
1,B10,~20%
2,B14,~20%
3,B3,10%

# Biological target: T1, human factor D
# Assay: SPR total binding to fD over time; Fab 10 mg/mL in pH 5.5 buffer (FIG. 2A), one month
row,Binder,loss in binding
1,B10,~40%
2,B14,~40%
